Measurements published in patent US6264958.

Columns and labels:
[1] = biological target: murine IL-6 receptor (murine) (UniProt P22272)
[2] = biological target: recombinant human IL-6 (human)

Substance	% Inhibition of B9 cell proliferation driven by 10 pg/ml hIL-6 (MTT, Absorbance570) [1] [% inhibition]	% Inhibition of B9 cell proliferation driven by 1:40 vIL-6 sup (MTT, Absorbance570) [1] [% inhibition]	% Inhibition of B9 cell proliferation driven by 10 pg/ml hIL-6 (MTT, Absorbance570) [2] [% inhibition]
functionally neutralizing monoclonal antibody directed against the murine IL-6R (D7715A7, Pharmigen)	80	53.8	–
monoclonal antibody directed against murine IL-2 (S4B6, Pharmigen)	–	–	23.4
